# Results: IntAct's records for PubMed 14978263
# Target: csk21_arath CKA1 (UniProt Q08467)
# Sequence (Q08467 whole entry): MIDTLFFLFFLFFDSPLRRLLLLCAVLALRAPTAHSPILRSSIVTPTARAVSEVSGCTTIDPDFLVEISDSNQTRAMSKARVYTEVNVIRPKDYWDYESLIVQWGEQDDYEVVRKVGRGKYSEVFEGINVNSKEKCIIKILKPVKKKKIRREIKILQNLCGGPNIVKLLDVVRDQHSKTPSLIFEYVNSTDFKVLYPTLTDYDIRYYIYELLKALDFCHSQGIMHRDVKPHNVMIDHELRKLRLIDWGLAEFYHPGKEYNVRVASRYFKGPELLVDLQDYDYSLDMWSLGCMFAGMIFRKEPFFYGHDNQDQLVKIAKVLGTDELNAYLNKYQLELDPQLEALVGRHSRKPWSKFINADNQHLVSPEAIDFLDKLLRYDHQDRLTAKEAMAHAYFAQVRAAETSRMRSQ
# Sequence of Protein CCA1 (Arabidopsis thaliana (Mouse-ear cress)), P92973 S6A (P92973 whole entry S6A): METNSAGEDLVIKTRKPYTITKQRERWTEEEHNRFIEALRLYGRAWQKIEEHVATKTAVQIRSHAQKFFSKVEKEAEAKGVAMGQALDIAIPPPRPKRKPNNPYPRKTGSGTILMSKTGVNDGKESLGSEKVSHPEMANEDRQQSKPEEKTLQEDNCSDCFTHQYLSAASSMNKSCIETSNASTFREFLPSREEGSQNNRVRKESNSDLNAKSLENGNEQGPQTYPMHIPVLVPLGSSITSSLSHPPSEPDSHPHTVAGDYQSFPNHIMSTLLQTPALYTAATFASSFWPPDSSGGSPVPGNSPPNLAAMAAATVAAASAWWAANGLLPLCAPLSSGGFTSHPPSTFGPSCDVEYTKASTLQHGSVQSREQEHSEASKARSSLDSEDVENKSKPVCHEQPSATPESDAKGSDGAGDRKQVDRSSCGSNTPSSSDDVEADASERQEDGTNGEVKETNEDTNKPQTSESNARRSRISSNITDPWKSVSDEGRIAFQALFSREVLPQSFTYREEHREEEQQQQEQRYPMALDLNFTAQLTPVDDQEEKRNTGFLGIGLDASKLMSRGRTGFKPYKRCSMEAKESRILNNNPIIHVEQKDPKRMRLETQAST
# Sequence of Protein CCA1 (Arabidopsis thaliana (Mouse-ear cress)), P92973 S5A (P92973 whole entry S5A): as the sequence (P92973 whole entry S6A) above, with S5A, A6S counted along it
row,effect of a mutation on the interaction,Substance
1,decreasing interaction,"Protein CCA1 (Arabidopsis thaliana (Mouse-ear cress)), P92973 S433A"
2,decreasing interaction,"Protein CCA1 (Arabidopsis thaliana (Mouse-ear cress)), P92973 S6A"
3,decreasing interaction,"Protein CCA1 (Arabidopsis thaliana (Mouse-ear cress)), P92973 S432A"
4,decreasing interaction,"Protein CCA1 (Arabidopsis thaliana (Mouse-ear cress)), P92973 S5A"
5,decreasing interaction,"Protein CCA1 (Arabidopsis thaliana (Mouse-ear cress)), P92973 S484A"
6,decreasing interaction,"Protein CCA1 (Arabidopsis thaliana (Mouse-ear cress)), P92973 S431A"
